Test results published in patent US20240199745A1, “ANTI-EGFR ANTIBODY DRUG CONJUGATES” (priority 2016, published 2024).
Positions count from the first letter of the chain named.

How the values were obtained:
[1] = biological target: human EGFR (huEGFR) over-expressed on mcl-1-/- mouse embryonic fibroblasts (human, UniProt P00533 25-1210); test: cell-based or functional assay
[2] = biological target: EGFR on EGFR positive non-small cell lung cancer cells NCI-H1650 (UniProt P00533 25-1210); test: cell-based or functional assay

B1: AbG-LB (antibody, human IgG1, kappa, V domains shown)
VH: EVQLQESGPGLVKPSQTLSLTCTVSGYSISNDFAWNWIRQLPGKGLEWMGYISYKGNTRYQPSLKSRITISRDTSKNQFFLKLNSVTAADTATYYCVTASRGLPYWGQGTLVTVSS
VL: DIQMTQSPSSMSVSVGDRVTITCHSSQDITYNIGWLQQKPGKSFKGLIYHGANLDDGVPSRFSGSGSGTDYTLTISSLQPEDFATYYCVQYDEFPWTFGGGTKLEIKR
modifications: synthon LB on reduced interchain cysteines; average DAR 2.5 per ADC
- huEGFR+ mcl-1-/- MEF EC50 [1]: 24 nM
- H1650 CTG-3D EC50 [2]: 1.68 µg/mL
- H1650 GFP Flourescence EC50 [2]: 1.62 µg/mL

B2: AbK-LB (antibody, human IgG1, kappa, V domains shown)
VH: B1 VH with N31R, L41P, K55N, L103F, Y105W
VL: B1 VL with I33V, A52S, D56H, E93D
modifications: synthon LB on reduced interchain cysteines; average DAR 1.8 per ADC
- huEGFR+ mcl-1-/- MEF EC50 [1]: 17 nM
- H1650 CTG-3D EC50 [2]: 1.23 µg/mL
- H1650 GFP Flourescence EC50 [2]: 1.33 µg/mL

B3: AbK-WD (antibody, human IgG1, kappa, V domains shown)
VH: B1 VH with N31R, L41P, K55N, L103F, Y105W
VL: B1 VL with I33V, A52S, D56H, E93D
modifications: synthon WD on reduced interchain cysteines; average DAR 1.7 per ADC
- huEGFR+ mcl-1-/- MEF EC50 [1]: 35 nM
- H1650 CTG-3D EC50 [2]: 4.36 µg/mL
- H1650 GFP Flourescence EC50 [2]: 2.57 µg/mL

B4: AbA-ZT (antibody, human IgG1, kappa, V domains shown)
VH: B1 VH with N31R, L41P, K55N, L103F
VL: B1 VL with T30N, Y31S, A52T, D92A, E93Q
modifications: synthon ZT on reduced interchain cysteines; average DAR 2 per ADC
- huEGFR+ mcl-1-/- MEF EC50 [1]: 104 nM
- H1650 CTG-3D EC50 [2]: 0.35 µg/mL
- H1650 GFP Flourescence EC50 [2]: 1.13 µg/mL

B5: AbA-ZZ (antibody, human IgG1, kappa, V domains shown)
VH: B1 VH with N31R, L41P, K55N, L103F
VL: B1 VL with T30N, Y31S, A52T, D92A, E93Q
modifications: synthon ZZ on reduced interchain cysteines; average DAR 1.3 per ADC
- huEGFR+ mcl-1-/- MEF EC50 [1]: 186 nM
- H1650 CTG-3D EC50 [2]: 1.86 µg/mL
- H1650 GFP Flourescence EC50 [2]: 1.18 µg/mL
